Measured values reported in patent publication US20230203162A1 (NUMAB THERAPEUTICS, published 2023).

Columns and labels:
[1] = target: soluble mesothelin (sMSLN); test: cell-based or functional assay
[2] = target: T1, plasma-membranous human MSLN on cell lines (H226, HPAC, H292, OVCAR-3, MeT-5A) (human, UniProt Q13421 296-598); test: cell-based or functional assay
[3] = target: T1, plasma-membranous human MSLN on cell …; test: flow cytometry on H226 cells
[4] = target: T1, plasma-membranous human MSLN on cell …; test: flow cytometry on H292 cells
[5] = target: T1, plasma-membranous human MSLN on cell …; test: flow cytometry on HPAC cells
[6] = target: T1, plasma-membranous human MSLN on cell …; test: flow cytometry on H226 cells, protein L-PE, 4PL fit
[7] = target: T1, plasma-membranous human MSLN on cell …; test: flow cytometry on H292 cells, protein L-PE, 4PL fit
[8] = target: T1, plasma-membranous human MSLN on cell …; test: flow cytometry on HPAC cells, protein L-PE, 4PL fit
[9] = target: T1, plasma-membranous human MSLN on cell …; test: flow cytometry on Met-5A cells, protein L-PE, 4PL fit
[10] = target: T1, plasma-membranous human MSLN on cell …; test: cell-based or functional assay; remark: listed apart in the source
[11] = target: T1, plasma-membranous human MSLN on cell …; test: cell-based or functional assay; remark: listed apart in the source
[12] = target: T1, plasma-membranous human MSLN on cell …; test: cell-based or functional assay; remark: listed apart in the source
[13] = target: T1, plasma-membranous human MSLN on cell …; test: cell-based or functional assay; remark: listed apart in the source
[14] = target: T1, plasma-membranous human MSLN on cell …; test: cell-based or functional assay; remark: listed apart in the source
[15] = target: T1, plasma-membranous human MSLN on cell …; test: cell-based or functional assay; remark: listed apart in the source
[16] = target: soluble mesothelin (sMSLN); test: cell-based or functional assay; remark: listed apart in the source
[17] = target: T2, human recombinant CD3ε protein (Sino Biological) (human, UniProt P07766 23-126); test: SPR, CD3ε amine-coupled to CM5, antibody injected
T2 construct: Bought protein; also called recombinant human CD3ε; human CD3ε

[18] = target: human serum albumin (hSA, Sigma-Aldrich A3782) (human, UniProt P02768 25-609); test: SPR, hSA amine-coupled to CM5, antibody injected, pH 5.5, 1:1 Langmuir
[19] = target: T2, human recombinant CD3ε protein (Sino …); test: SPR, CD3ε amine-coupled to CM5, antibody injected; footnote: ka1 of a two-state fitting model
[20] = target: T2, human recombinant CD3ε protein (Sino …); test: SPR, CD3ε amine-coupled to CM5, antibody injected; footnote: kd1 of a two-state fitting model
[21] = target: T3, recombinant human MSLN (purchased from Peprotech) (human, UniProt Q13421 296-598, limits assumed); test: SPR (Biacore T200), human MSLN; which of the two formats (MSLN immobilized / antibody captured) not given
T3 construct: Bought protein; also called recombinant human mesothelin

B1: PRO2100 (MATCH4) (other)
chain 1: DIQMTQSPSSLSASVGDRVTITCQASQNIYSNLAWYQQKPGKAPKLLIYDASDLASGVPSRFSGSGSGTDFTLTISSLQPEDFATYYCQQVRSSSDIDNPFGTGTKVTVLGGGGGSGGGGSGGGGSGGGGSQVQLVESGGGLVQPGGSLRLSCAASGFSLSSYAMGWVRQAPGKGLEWIGYISTIANTYYASWAKGRFTISRDNSKNTVYLQMNSLRAEDTAVYYCAREIRSGWVDYGFSIWGQGTLVTVSSGGGGSGGGGSEVQLVESGGGLVQPGGSLRLSCAASGFSLSSYDMSWVRQAPGKGLAWIGASYASGPTYYASWAKGRFTISRDNSKNTVYLQMNSLRAEDTATYFCARGGWTGTSHSNIWGQGTLVTVSSGGGSGGGSEVQLVESGGGLVQPGGSLRLSCAASGFSFSSSYWICWVRQAPGKCLEWVGCVFTGDGTTYYASWAKGRFTISRDNSKNTVYLQMNSLRAEDTATYFCARPVSVYYYGMDLWGQGTLVTVSS
chain 2: DIQMTQSPSSLSASVGDRVTITCQASQNIYSNLAWYQQKPGKAPKLLIYDASDLASGVPSRFSGSGSGTDFTLTISSLQPEDFATYYCQQVRSSSDIDNPFGTGTKVTVLGGGGGSGGGGSGGGGSGGGGSQVQLVESGGGLVQPGGSLRLSCAASGFSLSSYAMGWVRQAPGKGLEWIGYISTIANTYYASWAKGRFTISRDNSKNTVYLQMNSLRAEDTAVYYCAREIRSGWVDYGFSIWGQGTLVTVSSGGGGSGGGGSDVVMTQSPSSLSASVGDRVTITCQASQIISSRSAWYQQKPGQPPKLLIYQASKLASGVPSRFSGSGSGTDFTLTISSLQPEDFATYYCQCTYIDSNFGAFGCGTKLTVLGGGSGGSDIQMTQSPSSLSASVGDRVTITCQSSQSVFSNNYLAWFQQKPGQSPKRLIYSASTLASGVPSRFSGSGSGTDFTLTISSLQPEDFATYYCLGSYACSSADCYVFGTGTKVTVLG
notes: Variant of PRO2000 with anti-MSLN 54-01-G02-sc01 N66A (potential glycosylation site mutated)
shift of H226 killing potency with 100 ng/ml sMSLN [1]: 2 fold | EC50 target cell killing, H226 cells, 100 ng/ml sMSLN [2]: 3.56 pM | EC50 target cell killing, H226 cells, no sMSLN [2]: 1.54 pM | max. killing, H226 cells, 100 ng/ml sMSLN [2]: 58.9% | max. killing, H226 cells, no sMSLN [2]: 46.3% | fold binding against PRO1872 [3]: 3 fold | fold lower binding against PRO1872 [4]: 2 fold | fold binding against PRO1872 [5]: 1.5 to 2 fold | EC50 [6]: 524 pM | max. binding (MFI) [6]: 363000 MFI | EC50 [7]: 1300 pM | max. binding (MFI) [7]: 6250 MFI | EC50 [8]: 1010 pM | max. binding (MFI) [8]: 18000 MFI | EC50 [9]: 62.8 pM | max. binding (MFI) [9]: 7480 MFI

B2: PRO1872 (scMATCH3, MSLNlow KD×CD3×hSA) (other)
chain: DVVMTQSPSSLSASVGDRVTITCQASQIISSRSAWYQQKPGQPPKLLIYQASKLASGVPSRFSGSGSGTDFTLTISSLQPEDFATYYCQCTYIDSNFGAFGCGTKLTVLGGGGGSEVQLVESGGGLVQPGGSLRLSCAASGFSLSSYDMSWVRQAPGKGLAWIGASYASGPTYYASWAKGRFTISRDNSKNTVYLQMNSLRAEDTATYFCARGGWTGTSHSNIWGQGTLVTVSSGGGGSGGGGSGGGGSGGGGSDIQMTQSPSSLSASVGDRVTITCQSSQSVFSNNYLAWFQQKPGQSPKRLIYSASTLASGVPSRFSGSGSGTDFTLTISSLQPEDFATYYCLGSYACSSADCYVFGTGTKVTVLGGGGGSEVQLVESGGGLVQPGGSLRLSCAASGFSFSSSYWICWVRQAPGKCLEWVGCVFTGDGTTYYASWAKGRFTISRDNSKNTVYLQMNSLRAEDTATYFCARPVSVYYYGMDLWGQGTLVTVSSGGGGSGGGGSDIQMTQSPSSLSASVGDRVTITCQASESIGNYLAWYQQKPGKAPKLLIYSASTLASGVPSRFSGSGSGTDFTLTISSLQPEDFATYYCQSTDYGDSYIFGTGTKVTVLGGGGGSGGGGSGGGGSGGGGSEVQLVESGGGLVQPGGSLRLSCAASGISVSNDYYMCWVRQAPGKGLEWIGCISTYIGNTHYASWAKGRFTISRDNSKNTVYLQMNSLRAEDTAVYYCAKNAGYPGYRYAIDLWGQGTLVTVSS
notes: also called MSLN.CD3
fold killing potency against PRO2000, H292 cells [10]: 7 fold | fold killing potency against PRO2000, MeT-5A cells [10]: 16 fold | fold lower H226 killing potency against PRO2000, no sMSLN [10]: 20 fold | fold lower H226 killing potency against PRO2100, no sMSLN [10]: 10 fold | fold reduction of H226 killing potency with 500 ng/ml sMSLN [1]: 106 fold | shift of H226 killing potency with 100 ng/ml sMSLN [1]: 10 fold | EC50 CD8+ T cell activation, H226 cells [11]: 0.09 pM | EC50 CD8+ T cell activation, Met-5A cells [11]: 10.9 pM | EC50 target cell killing, H226 cells [11]: 5.31 pM | EC50 target cell killing, Met-5A cells [11]: 8.88 pM | EC50 CD8+ T cell activation, H292 cells [12]: 34.1 pM | EC50 CD8+ T cell activation, HPAC cells [12]: 47.2 pM | EC50 target cell killing, H292 cells [12]: 91 pM | EC50 target cell killing, HPAC cells [12]: 30.3 pM | EC50 H226 target cell killing, 50 ng/ml soluble mesothelin [13]: 636 pM | EC50 H226 target cell killing, 500 ng/ml soluble mesothelin [13]: 4650 pM | EC50 H226 target cell killing, no mesothelin [13]: 43.9 pM | EC50 CD8+ T cell activation with H226 cells, 50 ng/ml MSLN [14]: 200 pM | EC50 CD8+ T cell activation with H226 cells, 500 ng/ml MSLN [14]: 1120 pM | EC50 CD8+ T cell activation with H226 cells, no MSLN [14]: 22.9 pM | EC50 target cell killing, H226 cells, 100 ng/ml sMSLN [2]: 130 pM | EC50 target cell killing, H226 cells, no sMSLN [2]: 13.4 pM | max. killing, H226 cells, 100 ng/ml sMSLN [2]: 60.7% | max. killing, H226 cells, no sMSLN [2]: 54% | Fold-diff Window (mean Met-5A EC50 / mean H226 EC50) [15]: 1.1 fold | average mean H226 EC50, cell killing (LDH release) [15]: 120 pM | average mean Met-5A EC50, cell killing (LDH release) [15]: 138 pM | Delta 0-50 ng/mL sMSLN (x-fold change in H226 killing potency) [16]: 8.5 fold | Delta 0-500 ng/mL sMSLN (x-fold change in H226 killing potency) [16]: 78.2 fold | Kd [17]: 12100 pM | EC50 [6]: 1570 pM | max. binding (MFI) [6]: 467000 MFI | EC50 [7]: 709 pM | max. binding (MFI) [7]: 12200 MFI | EC50 [8]: 2160 pM | max. binding (MFI) [8]: 33300 MFI | EC50 [9]: 194 pM | max. binding (MFI) [9]: 11200 MFI | Kd [18]: 175 pM | koff [18]: 6.39e-05 s⁻¹ | kon [18]: 366000 M⁻¹ s⁻¹ | kon [19]: 293000 M⁻¹ s⁻¹ | koff [20]: 0.00508 s⁻¹ | Kd [21]: 187 pM | koff [21]: 4.96e-05 s⁻¹ | kon [21]: 265000 M⁻¹ s⁻¹
